Laboratory results published in PMC4737144.

Assays:
[1] = system: Strep-RapZ (Escherichia coli); experiment: EMSA
Hfq (Escherichia coli) = experiment: EMSA

GlmY
Kd [1]: 30 nM
binding signal (fold higher Hfq needed than for GlmZ) (Hfq (Escherichia coli)): 10
